Where two headings read alike, the source gives them in different places.

The target of assay [1] is T1, PDGFRβ-His (residues 1-314 of PDGFR-β with C-terminal hexahistidine tag) (human, UniProt P09619 33-314).
T1 construct: range 1-314; Monovalent form, expressed in FreeStyle 293-F cells; also called PDGRβ-His; PDGFR-His
As to the kind of experiment: KinExA. The procedure:
(§1) For KinExA measurements, a constant amount of PDGF/VEGF ligand is titrated with differing concentrations of PDGRβ-His or VEGFR2-His. The solutions are incubated for an appropriate amount of time to allow the ligand-receptor binding reaction to reach equilibrium. The solution is then briefly exposed to a solid support containing immobilized PDGFR or VEGFR, which captures unbound ligand. The amount of ligand bound to the solid support is then detected using a fluorescently-labeled antibody. […] For each binding interaction measured, curves for two concentrations of the constant ligand are performed. By performing two experiments with fixed ligand concentrations above and below the Kd, and fitting both sets of data with a nonlinear regression analysis, a more accurate measurement for the affinity can be obtained.
(§2) Kinetic Exclusion Assay (KinExA). All experiments were performed on a KinExA 3200 instrument with siliconized flow cell (Sapidyne Instruments Inc). […] 30 μg of receptor was incubated in 1 ml of 50 mM sodium bicarbonate, 0.5 M sodium citrate buffer, pH 8.3, for 2 hr at room temperature with rocking. Beads were allowed to settle by gravity and liquid removed. […] Captured PDGF/VEGF ligands were detected using a Dylight 649-conjugated anti-FLAG antibody (Rockland) at 1:1000 dilution in sample buffer. […] Data were analyzed with KinExA Pro Software.

In assay [2] the target is T2, VEGFR2-His (residues 1-764 of VEGFR2, Ig-like domains 1-7, with hexahistidine tag) (human, UniProt P35968 20-764).
T2 construct: range 1-764; Monomeric form, expressed in FreeStyle 293-F cells; also called VEGFR-His
Nature of the assay: KinExA. As for the experimental part:
as §1, §2
Background: Kinetic exclusion samples the free partner from a solution-phase mixture.

The target in assay [3] is T3, human VEGFR on human umbilical vein endothelial cells (HUVECs) (human, UniProt P35968 20-1356). Nature of the assay: cell-based or functional assay.
Assay [4] addresses PDGFRβ on DiscoveRx PathHunter U2OS PDGFRβ reporter cells (UniProt P09619 33-1106, limits assumed). As to the kind of experiment: cell-based or functional assay.
Assay [5] addresses T3, human VEGFR on human umbilical vein …. As to the kind of experiment: flow cytometry on HUVECs. As for the experimental part:
(§3) To test binding to VEGFR, human umbilical vein endothelial cells (HUVECs) and murine angiosarcoma endothelial cells (SVR) were used.
(§4) Cell-binding assay. Varying concentrations of scPDGF, scVEGF, and PDGF/VEGF ligands were incubated with 25,000 PDGFR- or VEGFR-expressing cells in binding buffer (20 mM Tris pH 7.5 with 1 mM MgCl₂, 1 mM MnCl₂, 2 mM CaCl₂, 100 mM NaCl, and 1 mg/ml BSA) for 5 hr (BJ-5ta, NIH/3T3) or 3 hr (HUVEC, SVR) at 4° C. Cells were washed and pelleted, then incubated with 1:100 R-PE-conjugated anti-FLAG antibody (Prozyme) for 15 min on ice. Cells were washed, pelleted, and resuspended in binding buffer immediately before analysis by flow cytometry using BD Accuri C6. Flow cytometry data were analyzed using BD Accuri C6 software, and statistical analysis was performed using GraphPad Prism 6.
(A flow cytometer gives signals particle by particle.)

For assay [6], the target named is T4, mouse VEGFR on SVR murine angiosarcoma endothelial cells (mouse).
T4 construct: whole, on cells
As to the kind of experiment: flow cytometry on SVR cells. The procedure:
as §3, §4

Assay [7] addresses T1, PDGFRβ-His (residues 1-314 of PDGFR-β …). Nature of the assay: KinExA Kinetics Injection. As for the experimental part: (§5) Additionally, the kinetic parameter kₒₙ can be determined by using a “kinetics injection” experiment. A constant concentration of PDGF/VEGF ligand is injected with an equal volume of differing concentrations of PDGRβ-His or VEGFR2-His. The two solutions are allowed to mix briefly (several seconds) in the time required for the instrument to deliver the mixture to the detection bead column. The pre-equilibrium concentrations of free ligand is fit to the standard bimolecular rate equation to obtain kₒₙ.
(§6) Kinetic Exclusion Assay (KinExA). All experiments were performed on a KinExA 3200 instrument with siliconized flow cell (Sapidyne Instruments Inc). […] 30 μg of receptor was incubated in 1 ml of 50 mM sodium bicarbonate, 0.5 M sodium citrate buffer, pH 8.3, for 2 hr at room temperature with rocking. Beads were allowed to settle by gravity and liquid removed. Beads were blocked by incubating in 1 ml of 10 mg/ml BSA in 1 M Tris buffer, pH 8.0, for 1 hr at room temperature with rocking, and stored in blocking buffer at 4° C. for up to one week until use. Running buffer contained PBS with 10 mM imidazole and 0.02% sodium azide. Samples were prepared in running buffer with 1 mg/ml BSA. Binding reactions were prepared with a fixed concentration of PDGF/VEGF ligands and dilution series of PDGFR or VEGFR. Captured PDGF/VEGF ligands were detected using a Dylight 649-conjugated anti-FLAG antibody (Rockland) at 1:1000 dilution in sample buffer. Kinetic experiments were performed with the “Kinetics Injection” method defined in the KinExA software. Data were analyzed with KinExA Pro Software. The Kd was determined from a global fit of two concentration curves using the “n-curve analysis” tool and the titrant concentrations as reference. […] The kₒₙ was calculated as a fit of the pre-equilibrium free ligand concentrations to the bimolecular binding equation using the “Kinetics Injection” tool.

Assay [8] has as its target T2, VEGFR2-His (residues 1-764 of VEGFR2, …). Nature of the assay: KinExA Kinetics Injection. The procedure:
as §5, §6

Assay [9] deals with T1, PDGFRβ-His (residues 1-314 of PDGFR-β …). Nature of the assay: KinExA, calculated from Kd and kon. As for the experimental part:
(§7) By performing two experiments with fixed ligand concentrations above and below the Kd, and fitting both sets of data with a nonlinear regression analysis, a more accurate measurement for the affinity can be obtained.
as §5, §6

Assay [10] addresses T2, VEGFR2-His (residues 1-764 of VEGFR2, …). As to the kind of experiment: KinExA, calculated from Kd and kon. The procedure:
as §7, §5, §6

In assay [11] the target is T1, PDGFRβ-His (residues 1-314 of PDGFR-β …). As to the kind of experiment: KinExA, equilibrium titration in solution, n-curve analysis. As for the experimental part: as §1
(§8) Kinetic Exclusion Assay (KinExA). All experiments were performed on a KinExA 3200 instrument with siliconized flow cell (Sapidyne Instruments Inc). […] 30 μg of receptor was incubated in 1 ml of 50 mM sodium bicarbonate, 0.5 M sodium citrate buffer, pH 8.3, for 2 hr at room temperature with rocking. Beads were allowed to settle by gravity and liquid removed. Beads were blocked by incubating in 1 ml of 10 mg/ml BSA in 1 M Tris buffer, pH 8.0, for 1 hr at room temperature with rocking, and stored in blocking buffer at 4° C. for up to one week until use. Running buffer contained PBS with 10 mM imidazole and 0.02% sodium azide. Samples were prepared in running buffer with 1 mg/ml BSA. Binding reactions were prepared with a fixed concentration of PDGF/VEGF ligands and dilution series of PDGFR or VEGFR. Captured PDGF/VEGF ligands were detected using a Dylight 649-conjugated anti-FLAG antibody (Rockland) at 1:1000 dilution in sample buffer. Kinetic experiments were performed with the “Kinetics Injection” method defined in the KinExA software. Data were analyzed with KinExA Pro Software.

In assay [12] the target is T2, VEGFR2-His (residues 1-764 of VEGFR2, …). The description is as above. The procedure:
as §1, §8

Assay [13] has as its target T3, human VEGFR on human umbilical vein …. Nature of the assay: flow cytometry on HUVECs, soluble ligand titrated 3 h at 4 C, anti-FLAG-PE. The procedure:
as §3, §4

The target in assay [14] is T4, mouse VEGFR on SVR murine angiosarcoma …. As to the kind of experiment: flow cytometry on SVR cells, soluble ligand titrated 3 h at 4 C, anti-FLAG-PE. The procedure:
as §3, §4

The target of assay [15] is T3, human VEGFR on human umbilical vein …. As to the kind of experiment: flow cytometry titration of the soluble FLAG-tagged protein on HUVECs, anti-FLAG detection. The procedure:
as §3, §4

In assay [16] the target is T4, mouse VEGFR on SVR murine angiosarcoma …. Nature of the assay: flow cytometry titration of the soluble FLAG-tagged protein on SVR cells, anti-FLAG detection. The procedure:
as §3, §4

Assay [17] addresses T1, PDGFRβ-His (residues 1-314 of PDGFR-β …). Nature of the assay: titration on yeast-displayed scPDGF, flow cytometry, anti-His. As for the experimental part: (§9) Cells were incubated in large enough volumes to avoid ligand depletion and appropriate time to reach equilibrium. During the last hour of incubation, yeast were incubated with 1:250 dilution of chicken anti-c-Myc (Invitrogen) in PBSA. […] Yeast were washed, pelleted, and resuspended in PBSA immediately before analysis by flow cytometry using BD FACSCalibur or BD Accuri C6. Flow cytometry data were analyzed using FlowJo (v7.6.1 and v10, Treestar) or BD Accuri C6 software. Statistical analysis was performed using GraphPad Prism 6.
(§10) Bound protein was detected using fluorescently-labeled anti-His and anti-mouse-Fc antibodies.

For assay [18], the target named is T5, PDGFRβ-Fc (residues 1-314 of PDGFR-β fused to the Fc region of mouse IgG2a) (human; mouse, UniProt P09619 33-314).
T5 construct: range 1-314; Expressed in FreeStyle 293-F cells; also called PDGRβ-Fc; PDGFR-Fc; not shown: Fc region of mouse IgG2a
Nature of the assay: titration on yeast-displayed scPDGF, flow cytometry, anti-mouse-Fc. As for the experimental part: as §9, §10

The target in assay [19] is T5, PDGFRβ-Fc (residues 1-314 of PDGFR-β …). As to the kind of experiment: yeast surface display titration; PDGF taken as yeast-displayed scPDGF.
The target of assay [20] is T3, human VEGFR on human umbilical vein …. Nature of the assay: flow cytometry on HUVECs, soluble ligand titrated 3 h at 4 C, anti-FLAG-PE. The source holds these as a separate data set.

T4 sequence (P35918 20-1345): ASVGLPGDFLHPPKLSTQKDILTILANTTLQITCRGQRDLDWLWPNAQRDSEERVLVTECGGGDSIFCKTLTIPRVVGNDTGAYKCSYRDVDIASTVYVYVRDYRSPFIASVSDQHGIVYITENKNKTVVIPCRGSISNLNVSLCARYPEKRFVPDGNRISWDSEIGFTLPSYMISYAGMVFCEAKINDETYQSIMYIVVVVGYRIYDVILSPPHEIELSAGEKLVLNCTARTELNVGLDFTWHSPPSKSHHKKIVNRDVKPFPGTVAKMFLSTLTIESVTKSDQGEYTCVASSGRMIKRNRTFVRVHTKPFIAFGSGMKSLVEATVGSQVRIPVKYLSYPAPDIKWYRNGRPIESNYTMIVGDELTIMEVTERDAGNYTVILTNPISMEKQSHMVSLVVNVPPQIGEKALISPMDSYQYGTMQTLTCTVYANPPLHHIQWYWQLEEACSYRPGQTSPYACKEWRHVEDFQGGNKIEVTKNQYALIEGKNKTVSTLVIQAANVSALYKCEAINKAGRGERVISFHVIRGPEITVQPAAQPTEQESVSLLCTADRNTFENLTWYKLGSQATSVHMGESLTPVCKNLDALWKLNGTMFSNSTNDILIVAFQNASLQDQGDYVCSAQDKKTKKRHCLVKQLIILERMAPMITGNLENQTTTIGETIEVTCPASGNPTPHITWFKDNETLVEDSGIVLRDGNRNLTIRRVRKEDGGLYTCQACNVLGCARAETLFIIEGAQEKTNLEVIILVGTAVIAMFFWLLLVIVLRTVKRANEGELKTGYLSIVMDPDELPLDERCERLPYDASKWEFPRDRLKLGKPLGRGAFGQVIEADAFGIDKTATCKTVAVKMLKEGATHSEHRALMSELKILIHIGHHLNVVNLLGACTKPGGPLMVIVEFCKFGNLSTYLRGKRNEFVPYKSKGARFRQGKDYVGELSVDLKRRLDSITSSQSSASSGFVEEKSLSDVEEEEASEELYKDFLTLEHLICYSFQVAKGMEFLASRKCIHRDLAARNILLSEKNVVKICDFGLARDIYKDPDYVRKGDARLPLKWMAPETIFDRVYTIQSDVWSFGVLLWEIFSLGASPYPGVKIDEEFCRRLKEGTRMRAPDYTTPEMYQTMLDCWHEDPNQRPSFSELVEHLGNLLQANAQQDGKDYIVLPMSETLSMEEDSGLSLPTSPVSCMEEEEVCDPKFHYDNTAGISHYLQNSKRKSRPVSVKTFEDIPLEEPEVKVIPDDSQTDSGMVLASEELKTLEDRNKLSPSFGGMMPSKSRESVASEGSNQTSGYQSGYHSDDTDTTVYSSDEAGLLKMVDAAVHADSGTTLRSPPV
T2 sequence (P35968 other isoform, or with tags, fused parts or gaps limits assumed, form in doubt): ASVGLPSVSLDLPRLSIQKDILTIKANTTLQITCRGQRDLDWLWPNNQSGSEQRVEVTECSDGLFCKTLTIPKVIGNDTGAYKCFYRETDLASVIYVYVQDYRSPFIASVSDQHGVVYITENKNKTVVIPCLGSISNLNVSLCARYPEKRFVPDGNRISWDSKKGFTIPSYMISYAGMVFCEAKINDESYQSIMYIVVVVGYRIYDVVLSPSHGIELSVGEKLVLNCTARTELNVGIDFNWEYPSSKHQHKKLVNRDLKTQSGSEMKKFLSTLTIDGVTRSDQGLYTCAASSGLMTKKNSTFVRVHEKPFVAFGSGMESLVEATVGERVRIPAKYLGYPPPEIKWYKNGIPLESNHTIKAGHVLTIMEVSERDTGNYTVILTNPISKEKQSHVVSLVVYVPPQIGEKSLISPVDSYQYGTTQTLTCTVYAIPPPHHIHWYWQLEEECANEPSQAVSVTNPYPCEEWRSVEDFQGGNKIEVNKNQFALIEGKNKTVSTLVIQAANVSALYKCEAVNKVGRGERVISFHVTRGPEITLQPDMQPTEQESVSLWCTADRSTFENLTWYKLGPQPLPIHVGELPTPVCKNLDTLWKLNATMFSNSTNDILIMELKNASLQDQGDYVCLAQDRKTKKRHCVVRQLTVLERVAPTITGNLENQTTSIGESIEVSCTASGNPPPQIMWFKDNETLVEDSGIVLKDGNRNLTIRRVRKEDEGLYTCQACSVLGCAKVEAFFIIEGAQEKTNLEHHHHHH
T3 sequence (P35968 20-1356 limits assumed): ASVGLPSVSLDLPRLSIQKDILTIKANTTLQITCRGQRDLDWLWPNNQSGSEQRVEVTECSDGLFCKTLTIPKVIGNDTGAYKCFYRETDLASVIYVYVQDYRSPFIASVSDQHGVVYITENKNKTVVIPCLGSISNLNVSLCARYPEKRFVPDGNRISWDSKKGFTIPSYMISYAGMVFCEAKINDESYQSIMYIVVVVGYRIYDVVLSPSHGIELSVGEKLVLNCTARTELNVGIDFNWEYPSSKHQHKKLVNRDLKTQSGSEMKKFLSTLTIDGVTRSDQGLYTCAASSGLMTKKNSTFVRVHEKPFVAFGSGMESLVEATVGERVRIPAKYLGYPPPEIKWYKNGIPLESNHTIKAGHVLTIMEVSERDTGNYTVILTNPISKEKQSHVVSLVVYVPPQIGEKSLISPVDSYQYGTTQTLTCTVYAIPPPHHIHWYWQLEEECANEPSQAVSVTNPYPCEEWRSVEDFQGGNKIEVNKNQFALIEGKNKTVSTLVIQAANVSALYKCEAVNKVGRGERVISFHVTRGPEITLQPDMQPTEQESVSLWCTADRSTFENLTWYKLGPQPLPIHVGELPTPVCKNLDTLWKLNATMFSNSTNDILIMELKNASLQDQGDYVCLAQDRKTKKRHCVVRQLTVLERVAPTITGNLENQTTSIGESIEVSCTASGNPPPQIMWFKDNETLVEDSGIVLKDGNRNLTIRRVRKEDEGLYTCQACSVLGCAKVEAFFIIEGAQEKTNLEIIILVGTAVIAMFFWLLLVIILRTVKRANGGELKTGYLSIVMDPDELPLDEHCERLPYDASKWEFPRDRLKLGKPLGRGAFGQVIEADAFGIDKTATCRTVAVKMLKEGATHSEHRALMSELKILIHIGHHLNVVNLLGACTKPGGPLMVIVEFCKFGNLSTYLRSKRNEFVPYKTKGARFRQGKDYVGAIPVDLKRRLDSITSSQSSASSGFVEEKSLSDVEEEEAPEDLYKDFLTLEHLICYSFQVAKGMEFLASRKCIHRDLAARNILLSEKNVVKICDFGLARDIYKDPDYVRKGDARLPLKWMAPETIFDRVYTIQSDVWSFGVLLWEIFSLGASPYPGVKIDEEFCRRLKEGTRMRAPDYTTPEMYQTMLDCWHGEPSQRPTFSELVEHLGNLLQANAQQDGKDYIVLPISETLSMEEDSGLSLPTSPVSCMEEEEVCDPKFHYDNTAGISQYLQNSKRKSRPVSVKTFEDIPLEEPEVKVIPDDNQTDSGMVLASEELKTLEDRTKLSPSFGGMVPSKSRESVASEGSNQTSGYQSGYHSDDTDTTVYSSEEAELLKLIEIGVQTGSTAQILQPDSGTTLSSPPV
T5 sequence (P09619 33-314 limits assumed, form in doubt): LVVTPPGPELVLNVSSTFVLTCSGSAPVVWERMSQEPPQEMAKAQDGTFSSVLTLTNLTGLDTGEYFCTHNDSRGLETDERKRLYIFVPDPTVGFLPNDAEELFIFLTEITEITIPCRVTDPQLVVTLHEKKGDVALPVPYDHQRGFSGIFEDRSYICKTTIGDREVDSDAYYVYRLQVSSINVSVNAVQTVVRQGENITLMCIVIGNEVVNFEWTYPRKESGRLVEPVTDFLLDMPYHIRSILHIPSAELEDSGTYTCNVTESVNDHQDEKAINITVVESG

B1: PVGS, soluble, FLAG and hexahistidine tags (designed binder)
chain: DYKDDDDKIAEPAMIAECHPIETLVDILQEYPDEIGYIFKPSCVPLMRCGGCCNNRNVQCRPTEESNITMQIMRIKPHRGQHIGEMSFLQHNKCRCETVAAGGGGSGGGGSGGGGSGGGGSEVVKFMDVYQRSYCKTRTEVFEISRRLIDATNANFLVWPPCVEVQRCSGCCNHEGLECVPTQVQLRPVQVRKIEFVRKKPIFKKATVTLEDHLACECRPKKDHHHHHH
notes: Secreted from S. cerevisiae YVH10 at 20 C and treated with Endo Hf
For the molecule B1, the “fold improvement in binding affinity compared to PV6” value in assay [1] was determined as 130 fold. For the same molecule, the “fold improvement in affinity compared to PV6” value turned out to be 2700 fold in assay [2], 14 fold in assay [5] and 78 fold in assay [6]. In assay [3], the “IC50 of inhibition of HUVEC proliferation induced by 0.5 nM VEGF165, alamarBlue” value worked out at 1.2 nM. For the same molecule, the “IC50 of inhibition of stimulation by 0.5 nM PDGF-BB, PathHunter PDGFRβ reporter cells” value in assay [4] was 1.1 nM. In addition, the kon in assay [7] was 2e+07 M⁻¹ s⁻¹; in assay [8], 680000 M⁻¹ s⁻¹. For the same molecule, the koff in assay [9] is 0.00013 s⁻¹; in [10] it was 9.6e-06 s⁻¹. Moreover, the Kd in assay [11] was determined as 0.0067 nM; in assay [12] it was 0.014 nM; in [13] it was 0.77 nM; in [14], 0.45 nM. In addition, the “EC50 (read off the curve)” value in [15] is approximately 0.8 nM; in [16] it was approximately 0.5 nM.

B2: scPDGF, yeast-displayed (ligand)
chain: IAEPAMIAECKTRTEVFEISRRLIDRTNANFLVWPPCVEVQRCSGCCNNRNVQCRPTQVQLRPVQVRKIEIVRKKPIFKKATVTLEDHLACKCETVAAGSTSGSGKSSEGKGIAEPAMIAECKTRTEVFEISRRLIDRTNANFLVWPPCVEVQRCSGCCNNRNVQCRPTQVQLRPVQVRKIEIVRKKPIFKKATVTLEDHLACKCETVAA
Take B2: the Kd is 310 nM in [17], 0.028 nM in [18] and approximately 0.04 nM in assay [19].

B3: scVEGFwt, single-chain version of VEGF-A, soluble, FLAG and hexahistidine tags (ligand)
chain: DYKDDDDKEVVKFMDVYQRSYCHPIETLVDIFQEYPDEIEYIFKPSCVPLMRCGGCCNDEGLECVPTEESNITMQIMRIKPHQGQHIGEMSFLQHNKCECRPKKDGSTSGSGKSSEGKGEVVKFMDVYQRSYCHPIETLVDIFQEYPDEIEYIFKPSCVPLMRCGGCCNDEGLECVPTEESNITMQIMRIKPHQGQHIGEMSFLQHNKCECRPKKDHHHHHH
notes: Expressed in Pichia pastoris GS115; also called single-chain VEGF-A
B3: the values for the Kd in assay [20], in assay [13] and in [14] were 1.5 nM, 18 nM and 10 nM, respectively. For the same molecule, in assay [15], the “EC50 (read off the curve)” value is approximately 10 nM.

For orientation: kon means the rate constant with which the complex forms. What is called koff is a measure of how fast the partners let go of each other. A word on the Kd: it is the free concentration of one partner at which half of the binding sites on the other are occupied at equilibrium, for simple one-to-one binding. As usually defined, the EC50 (read off the curve) is the concentration needed to bring the measured effect to its halfway point. Higher therefore signals a less potent agent.

Values taken from patent US20180111972A1 (Stanford University, published 2018).
